In patent US20050208042A1 (GENETICS INSTITUTE, published 2005):

T1: human B7-2 (CD86) expressed on the cell surface (CHO/hB7-2 cells) (human, UniProt P42081 24-329)
T1 construct: whole, on cells; Also used for native B7-2 on human PBL in the MLR row under functional; also called rhB7-2
T1 sequence (looked up): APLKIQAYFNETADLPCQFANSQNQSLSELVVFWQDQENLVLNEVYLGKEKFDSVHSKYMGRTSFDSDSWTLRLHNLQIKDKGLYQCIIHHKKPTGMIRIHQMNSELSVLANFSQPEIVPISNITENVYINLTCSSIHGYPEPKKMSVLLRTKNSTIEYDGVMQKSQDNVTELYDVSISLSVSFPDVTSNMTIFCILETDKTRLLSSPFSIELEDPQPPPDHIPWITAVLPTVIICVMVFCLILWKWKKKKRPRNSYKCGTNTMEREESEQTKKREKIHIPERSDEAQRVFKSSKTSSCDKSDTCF

T2: human B7-2Ig (recombinant soluble hB7-2Ig) (human, UniProt P42081 24-247)
T2 construct: extracellular domain; Secreted by CHO cells, purified on protein A, immobilized on the BIACORE chip; not shown: hinge-CH2-CH3 domains of the human IgG1 heavy chain
T2 sequence (looked up): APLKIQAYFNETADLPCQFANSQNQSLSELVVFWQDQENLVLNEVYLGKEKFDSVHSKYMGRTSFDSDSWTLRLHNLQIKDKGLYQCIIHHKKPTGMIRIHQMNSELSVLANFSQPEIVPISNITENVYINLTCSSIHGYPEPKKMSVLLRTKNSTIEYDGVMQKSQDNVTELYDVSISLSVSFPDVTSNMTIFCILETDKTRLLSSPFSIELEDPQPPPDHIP

T3: human B7-1 (CD80) expressed on the cell surface (CHO/hB7-1 cells) (human, UniProt P33681 35-288)
T3 construct: whole, on cells; Also used for native B7-1 on human PBL in the MLR; also called rhB7-1
T3 sequence (looked up): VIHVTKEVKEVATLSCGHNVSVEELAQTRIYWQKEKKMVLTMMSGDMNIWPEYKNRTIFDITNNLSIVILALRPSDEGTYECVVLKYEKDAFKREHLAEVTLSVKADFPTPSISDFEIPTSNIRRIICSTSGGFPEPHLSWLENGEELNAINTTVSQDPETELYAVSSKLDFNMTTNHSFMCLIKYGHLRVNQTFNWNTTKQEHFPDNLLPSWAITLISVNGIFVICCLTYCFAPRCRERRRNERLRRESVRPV


Tests used:
[1] = molecular target: T1, human B7-2 (CD86) expressed on the cell …; experiment: direct binding of 125I-labeled antibody to CHO/hB7-2 cells, half-maximal binding
From the text: (§1) Binding assays were begun by plating cells onto 96-well tissue culture plates at 10,000 CHO/hB7-2 cells per well. Two days later, adherent cells were gently washed with assay buffer containing nonfat dry milk protein (for blocking nonspecific binding) and sodium azide (to prevent internalization of antibodies by cells). For direct binding assays, ¹²⁵I-labeled anti-B7 antibodies (¹²⁵I-murine anti-human B7-2; 826 cpm/fmol; humanized anti-human B7-2, 883 cpm/fmol) were serially diluted in assay buffer and incubated on cells overnight, allowing antibodies to bind to cell-surface B7 and come to equilibrium. Unbound antibody was gently washed from cells, and bound ¹²⁵I-labeled antibody was detected using an ¹²⁵I scintillant and photodetector system. Non-specific binding to CHO cells was determined for each dilution in the same manner, but on cells expressing the B7-1 molecule that is not recognized by the antibody being tested.
The data, means of triplicate wells with nonspecific binding subtracted, were fit to a hyperbolic saturation curve using Graphpad PrismJ software. […] Both murine and humanized anti-B7-2 antibodies recognize cell surface expressed hB7-2 with high affinity.

[2] = molecular target: T2, human B7-2Ig (recombinant soluble …); experiment: SPR (BIACORE), hB7-2Ig immobilized, bivalent model, mean of three runs
Description: (§2) The BIACORE® biosensor (BIACORE®; Uppsalla, Sweden) was used to determine binding kinetics of murine and humanized anti-B7-2 human antibodies to human B7-2Ig. Hunan B7-2Ig (hB7-2Ig) was immobilized onto the dextran matrix of a BIACORE® sensor chip. Humanized and murine anti-human B7-2 were tested at 200, 100, 50, and 20 nM. Each dilution was tested 4 times per run and a total of three separate runs performed. Anti-human B7-2 antibody binding was measured in real time by Surface Plasmon Resonance (SPR) and global analysis was performed using the bivalent binding model in BIA evaluation software (version 3.1). For each sample, the association (kₐ), dissociation (kd), and equilibrium dissociation constant (KD) were determined.

[3] = molecular target: T2, human B7-2Ig (recombinant soluble …); experiment: SPR (BIACORE), hB7-2Ig immobilized
Description: as §2

[4] = molecular target: T1, human B7-2 (CD86) expressed on the cell …; experiment: competitive binding against 125I-murine 3D1 on CHO/hB7-2 cells
Description: (§3) The relative affinities, of the murine and humanized 3D1 antibodies for the B7-2 antigen were determined by competitive binding assays. Three-fold serial dilutions of unlabeled humanized or murine 3D1 antibodies were mixed with a fixed amount of radio-iodinated murine 3D1 antibody (40,000-50,000 cpm per test in PBS containing 2% fetal calf serum).
(§4) 1×10⁵ CHO cells expressing cell surface rhB7-2 (CHO/hB7-2) were added subsequently and the mixture (in a total volume of 200 μL) was incubated for 2 hr at 4° C. with gentle shaking. The cell-antibody suspension was then transferred to Sarstedt Micro Tubes (part #72.702) containing 100 μL of 80% dibutyl phthalate-20% olive oil. After centrifugation in a microfuge, the Sarstedt tubes were plunged into dry ice for several minutes. Cell-bound ¹²⁵I was determined by clipping tips of each tube (containing cell pellets) into scintillation vials and counting in a gamma counter. Bound and free counts were determined and the ratio plotted against the concentrations of the cold competitor antibodies according to the method of Berzofsky and Berkower (J. A. Berzofsky and I. J. Berkower, in Fundamental Immunology 9ed. W. E. Paul), Raven Press (New York), 595 (1984)).

[5] = molecular target: T3, human B7-1 (CD80) expressed on the cell …; experiment: 125I direct binding, CHO cells expressing B7-1 as control for non-specific binding
From the text: as §1

[6] = molecular target: T1, human B7-2 (CD86) expressed on the cell …; experiment: cell-based or functional assay
[7] = molecular target: T3, human B7-1 (CD80) expressed on the cell …; experiment: competition binding on CHO cells expressing rhB7-1: unlabeled competitor against 125I-humanized 1F1 tracer, bound/free ratio
Description: as §4, with “The affinity of the mouse and humanized 1F1 antibodies for the B7-1 antigen was determined by competitive binding with radio-iodinated humanized 1F1 antibody. Three-fold serial dilutions of unlabeled mouse or humanized 1F1 antibodies were mixed with a fixed amount of radio-iodinated humanized 1F1 antibody (40,000-50,000 cpm per test) in PBS containing 2% fetal calf serum, 0.1% sodium azide. 3×10⁴” for “1×10⁵”, “rhB7-1” for “rhB7-2 (CHO/hB7-2)”, “clipping the” for “clipping”, “Immunology,” for “Immunology 9ed.”, “Paul,” for “Paul),”, “Press, New York, pp. 595-644” for “Press (New York), 595”

[8] = molecular target: T3, human B7-1 (CD80) expressed on the cell …; experiment: competitive binding against 125I-humanized 1F1 on CHO cells expressing rhB7-1
Description: as §4, with “The affinity of the mouse and humanized 1F1 antibodies for the B7-1 antigen was determined by competitive binding with radio-iodinated humanized 1F1 antibody. Three-fold serial dilutions of unlabeled mouse or humanized 1F1 antibodies were mixed with a fixed amount of radio-iodinated humanized 1F1 antibody (40,000-50,000 cpm per test) in PBS containing 2% fetal calf serum, 0.1% sodium azide. 3×10⁴” for “1×10⁵”, “rhB7-1” for “rhB7-2 (CHO/hB7-2)”, “clipping the” for “clipping”, “Immunology,” for “Immunology 9ed.”, “Paul,” for “Paul),”, “Press, New York, pp. 595-644” for “Press (New York), 595”

[9] = molecular target: T1, human B7-2 (CD86) expressed on the cell …; experiment: competition binding on CHO/hB7-2 cells: unlabeled competitor against 125I-murine 3D1 tracer, bound/free ratio
Description: as §3, §4

Row | Binder | Kd [1] | Kd [2] | Ka [4] | binding result [5] | IC50 of inhibition of CD28+ human T cell proliferation stimulated with PMA and CHO/hB7-2 cells [6] | also measured
1 | humanized 1F1 antibody, IgG2.M3 form (antibody, V domains shown, Human gamma 2 constant region variant M3 (Val and Gly at positions 234 and 237 replaced with Ala) and human kappa light chain; also called hu1F1; the IgG2.M3 antibody) VH: EVQLVQSGAEVKKPGASVKVSCKPSGFNIKDYYMHWVRQAPGQGLEWIGWIDPENGNTLYDPKFQGKATITADTSTSTAYMELSSLRSEDTAVYYCAREGLFFAYWGQGTLVTVSS VL: DIQMTQSPSSLSASVGDRVTITCSVSSSISSSNLHWYQQKPGKAPKPLIYGTSNLASGVPSRFSGSGSGTDYTLTISSLQPEDVATYYCQQWSSYPLTFGQGTKVEIK |  |  |  |  |  | IC50 (read off the curve) [7]: ~1 nM; Ka [8]: ~1e+09 M⁻¹
2 | humanized 3D1 antibody, IgG2.M3 form (antibody, V domains shown, Human gamma 2 constant region variant M3 (Val and Gly at positions 234 and 237 replaced with Ala; pVg2.M3 vector) and human kappa light chain; The entries include signal peptides (see the note of m2); also called humanized IgG2.M3 anti-human B7-2; hu3D1) VH: QVQLVQSGAEVKKPGSSVKVSCKASGYTFTDYAIQWVRQAPGQGLEWIGVINIYYDNTNYNQKFKGKATMTVDKSTSTAYMELSSLRSEDTAVYYCARAAWYMDYWGQGTLVTVSS VL: DIVLTQSPDSLAVSLGERATISCKSSQSLLNSRTRENYLAWYQQKPGQPPKLLIYWASTRESGVPDRFSGSGSGTDFTLTISSLQAEDVAVYYCTQSYNLYTFGQGTKVEIK |  |  | ~1e+09 M⁻¹ |  |  | 

The next lines start with results.

Row | Kd [1] | Kd [2] | Ka [4] | binding result [5] | IC50 of inhibition of CD28+ human T cell proliferation stimulated with PMA and CHO/hB7-2 cells [6] | Binder | also measured
3 | ~1 nM | 1.8 nM | ~1e+09 M⁻¹ | no binding | 0.072 nM | murine 3D1 monoclonal antibody (murine anti-human B7-2 mAb) (antibody, V domains shown, Hybridoma mouse antibody with kappa light chain; also called HF2.3D1; mouse 3D1) VH: QVQLQQSGPELVRPGESVKISCKGSGYTFTDYAIQWVKQSHAKSLEWIGVINIYYDNTNYNQKFKGKATMTVDKSSSTAYMELARLTSEDSAIYYCARAAWYMDYWGQGTSVTVSS VL: DIVLSQSPSSLAVSAGEKVTMSCKSSQSLLNSRTRENYLAWYQQKPGQSPKLLIYWASTRESGVPDRFTGSGSGTDFTLTISSVQAEDLAVYYCTQSYNLYTFGGGTKLEIK | fold higher affinity than the humanized anti-B7-2 mAb [3]: ~2.8 fold
4 | ~1 nM | 5.1 nM |  | no binding | 0.05 nM | humanized anti-human B7-2 mAb (humanized 3D1), isotype not stated in the example (antibody, V domains shown, Same variable regions; The entries include signal peptides (see the note of m2); also called humanized anti-B7-2; humanized anti-hB7-2) VH: QVQLVQSGAEVKKPGSSVKVSCKASGYTFTDYAIQWVRQAPGQGLEWIGVINIYYDNTNYNQKFKGKATMTVDKSTSTAYMELSSLRSEDTAVYYCARAAWYMDYWGQGTLVTVSS VL: DIVLTQSPDSLAVSLGERATISCKSSQSLLNSRTRENYLAWYQQKPGQPPKLLIYWASTRESGVPDRFSGSGSGTDFTLTISSLQAEDVAVYYCTQSYNLYTFGQGTKVEIK | 
5 |  |  | ~1e+09 M⁻¹ |  |  | humanized 3D1 antibody, IgG4 form (antibody, V domains shown, Human gamma 4 constant region (pVg4 vector) and human kappa light chain (pVk); also called humanized IgG4 anti-human B7-2; hu3D1) VH: QVQLVQSGAEVKKPGSSVKVSCKASGYTFTDYAIQWVRQAPGQGLEWIGVINIYYDNTNYNQKFKGKATMTVDKSTSTAYMELSSLRSEDTAVYYCARAAWYMDYWGQGTLVTVSS VL: DIVLTQSPDSLAVSLGERATISCKSSQSLLNSRTRENYLAWYQQKPGQPPKLLIYWASTRESGVPDRFSGSGSGTDFTLTISSLQAEDVAVYYCTQSYNLYTFGQGTKVEIK | IC50 (read off the curve) [9]: ~1 nM
